The record followed here is the nanobody polyreactivity screen of Harvey et al. (2022).

The data set can be described thus: yeast display, Sf9 membrane polyspecificity reagent, FACS + sequencing; frameworks hold sequencing errors. The essentials:
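Using colony PCR, genes from sorted yeast display clones were amplified, then sequenced on MiSeq at 2 × 250 and filtered by CDR length. The clones had been stained with 10% biotinylated, detergent-solubilized Sf9 membrane reagent for 1 hour at 4 °C and sorted by FACS into low and high (top ~1%) gates on anti-HA and streptavidin fluorescence. Polyreactivity labels come from the gate of origin.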
In the case of “QVQLVESGGGLVQAGGSLRLSCAASGRIFTANAMGWYRQAPGKERELVAAITSGTRTNYADSVKGRFTISRDNAKNTVYLQMNSLKPEDTAVFYCAKETATSKYDYWGQGTQVTVSS”, the “polyreactivity (PSR sort gate)” value is “low polyreactivity”.
Then “QVQLVESGGGLVQAGGSLRLSCAASGGIFDRYAMGWYRQAPGKERELVAAITSGGSTNYADSVKGRFTISRDNAKNTVYLQMISLKPEDTAVYYCNADLGILSGVAEGPTFREYDYWGQGTQVTVSS”, with “low polyreactivity”; and “QVQLVESGGGLVQAGGSLRLSCAASGSTLYRYTMGWYRQAPGKERELVAAISSGGNTYYADSVKGRFTISRDNAKNTVYLQMNSLKPEDTAVYYCAAEDSVYIPYYDAFDYWGQGTQVTVSS”, with “low polyreactivity”; and “QVQLVESGGGLVQAGGSLRISCAASGRTFGANAMGWYRQAPGKERELVAGITSSGGSTSYADSVKGRFTISRDNAKNTVYLQMNSLKPEDTAVYYCAKDVYQHIFDVILGGYDSWGQGTQVTVSS”, with “low polyreactivity”.
Turning to “QVQLQESGGGLVQAGGSLRLSCAARGNNSSYYRMGWYRQAPGQEREFVATIAVGGTTNYADSVKGRFTISRDNEKTTLYLQRNSLKPEDTAVCFCAANSTQYTWFDYWGQGTQVPVSS”, the “polyreactivity (PSR sort gate)” value is on record as “low polyreactivity”.
Take “QVQIVESGGGLVQAGGSLRLSCAASGFTLHRNAMGWYRQAPGKERELVANISWTGGSTYYADSVKGRFTISRDNAKNTVYLQMNSLKPEDTAVYYCAARGHWSIYGYYYLGATAFGYWGQGTQVTVSS”: the “polyreactivity (PSR sort gate)” value is given as “low polyreactivity”.
In the case of “QVQLVESGGGLVQAGGSLRLSCAASGFIFVGNAMGWYRQAPGKERELVAAISRRGSRTFYADSVKGRFTISRDNAKNTVYLQMNSLKPEDTAVYYCATDKWYGYYYWGQGTQVTVSS”, the “polyreactivity (PSR sort gate)” value is recorded as “low polyreactivity”.
Then “QVQLVESGGGLVQAGGSLRLSCASSGRSLSVYAMGRYRQAPGKERDLVADITWRGGSTYYADSVKGRFTISRDNAKNTVYLQMNSLKPEDTAVYYCAAADSTWFDWGNYWYYYWGQGTQVSVSS”, with “low polyreactivity”.
For “QVQLVESGGGLVQAGGSLRLSCSASGRTSQWNAMGWYRQAPGKERELVAAISWRTGGTYYADSVKGRFTISRDKAKNTVYLQMNSLQPEDTAVYYCAAGYIGGRPQYWRIGGYWGQGTQVTVSS”, the “polyreactivity (PSR sort gate)” value is given as “high polyreactivity”.
As to “QVQLVESGGGLVQAGGSLRLSCAASGRIYVNAMGWYRQAPGKERELVAAIRSGGSTNYADSVKGRFTISRDNAKNTVYLQMNSLKPEDTAVYYCNARRRDYRHWYDYWGQGTQVTVSS”, the “polyreactivity (PSR sort gate)” value is on record as “high polyreactivity”.
Turning to “QVQLVESGGGLVQAGGSLRLSCAASGSTFRRYAMGWYRQAPVKERELVAAITRGGITYYADSVKGRFTISRDNAKNTVYLQMNSLKPEDTAVYYCAATTFGPYALYPRYYYWGQGTQVTVSS”, the “polyreactivity (PSR sort gate)” value is reported as “high polyreactivity”.
Regarding “QVQLVESRGGLVQAGGSLRLSCAASGFIFGVNAMGWYRQAPGKERELVAAITRNGGSTYYADSVKGRFTISRDYAKNSVYLQMNSLKPEDTAVYYCAKYVRRAPSTFDVDYWGQGTQVTVSS”, the “polyreactivity (PSR sort gate)” value is “high polyreactivity”.
On to “QVQLQESGGGLVQAGGSLRLGCAASGNISDAGYMGWYRQAPGKEREFVAAIAAGSNTNYADSVKGRFTISRDNAKNTVYLQMNSLKPEDTAVFYCAVASYARVQYQYWGQGTQVTVNS”, for which the “polyreactivity (PSR sort gate)” value is on record as “low polyreactivity”.
“QVQLVESGGGLVQAGGILRLSCAASGFTFGLYAMGWYRQAPGTERELVAAIRNNGGSTYYADSVKGRFTISRDNAKNTVYLQMNSLKPDDTAVYYCAKKSFFTGRWWYDYWGQGTQVSVSS”: the “polyreactivity (PSR sort gate)” value is on record as “high polyreactivity”.
Regarding “QVKLVESGGGLVQAGGSLRLSCAASGRTFVWNAMGWYRQAPGKERELVAAISSSGTSTYYADSVKGRFTISRDNAKNTVYLQMNSQKPEDTAVYYCAKDLLYQPTIRDYWGQGTQVTVSS”, the “polyreactivity (PSR sort gate)” value is on record as “low polyreactivity”.
For “QVQLVESAGGLVQAGGSLRLSCYASGSIFTRNAMGWYRQAPGKERELVASISYSGGNTYYADSVKGRFTISRDNAKNTVYLQMNSLKPEDTAVYYCAALYSVYRDGYYWGQGTQVTVSS”, the “polyreactivity (PSR sort gate)” value is on record as “high polyreactivity”.
“QVQLVESGGGLDQAGGSLRLSCAASGSIFRGYAMGWYRQAPGKERDLVAAINRSGGRTYYADSVKGRFTISRDNAKNTVYLQMNRLKPEDTAVYYCAADYFFYQPSGYDYWGQGTQVTVSS”: the “polyreactivity (PSR sort gate)” value is “high polyreactivity”.
In the case of “QVQLVESGGGLVQAGGSLRLSCAASGRIYWSYDMGWNRQAPVKERELVASITSDGSTNYADSVKGRFTISRDNAKNTVYLQMNSLKPEDTAVYYCAARPYKYDPFAQGDGGKYDYWGQGTQVTVSS”, the “polyreactivity (PSR sort gate)” value is “low polyreactivity”.
For the sequence “QVQLLESGGGLVQAGGSLRLSCAASGSTFWWNTMGWYRQAPGKERELVADIRPSGGGTYYADSVKGRFTISRDNAKNTVYLPMHSLKPEATAVYYCNADPKWEMGSWGQGTQVTVSS”, the “polyreactivity (PSR sort gate)” value is “low polyreactivity”.
Under “QVQLVESGGGLVQAGGSLRLSCAASGRIIGINAMGWYRQAPGKERELVATITSGGDTNYADSVKGRFTISRDNAKNTVYLQMNSLKPEDTAVYYCNAESYGLGFGYDYWGQGTQVTVSS” stands “low polyreactivity”; under “QVQLVESGGGLVQAGGSLRLSCAASGRTFDVYAMAWYRQAPGKERELVATISWRGTSTYYADSVKGRFTISRDNAKNTVYLQMNSLKPADTAVYYCAKDPQPDLYGSWGQGTQVTVSS”, “high polyreactivity”; under “QLQLVESGGGLVQAGGSLRLSCAASGRTFQGYAMGWYRQAPGKERELVAAISRSGGRTYYADSVKGRFTISRDNAKYTVYLQMNSLKPEDTAVYYCCTEAFRDYGYWGQGTQVTVSS”, “high polyreactivity”.
Then “QVHLVESGGGLVQAGGSLRLSCAASGFIFEPYAMGCYRQAPWKEWELVAAISSGGSTYADSVKGRFTISRDNAKNTVYLQMISLKPEDTAVYYCAADSYYSVWGFYFWGQGTQVTVSS”, with “low polyreactivity”.
As to “QVQRVESGGGLVQAGGSLRLSCAATGFTFSWYVMGWYRQAPGKERELVATITNRGGSTYYSDSVKGRFTISRDNAKNTVYLQMNSLKPEDPAVYYCAARKKGSRVGFDYWGQGTQVTVSS”, the “polyreactivity (PSR sort gate)” value is recorded as “high polyreactivity”.
Turning to “QVQLVESGGGLVQAGGSLRLICAASGSIFFSYAMGSYRQAPGKERELVAGINRSGGSTYADSVKGRFTISRDNAKNTVNLQMTSLKPEDTAVYYCAAKYYSERSRYHYWGQGTQVTVSS”, the “polyreactivity (PSR sort gate)” value is recorded as “low polyreactivity”.
In the case of “QVQLVESGGGLVQAGGSLRLSCAASGSIFWNYTMGWYRPAPGKERELVAAITWSGSSTYYADSVKGRFTISRDNAKNTVYLQMNSLKPEDTAVYYCAKDGSGTYEFDYWGQGTQVTVSS”, the “polyreactivity (PSR sort gate)” value is on record as “low polyreactivity”.
Turning to “QVQLVESGGCLVQAGGSLRLSCAASGSILRYYAMGWYRQAPGKERELVAAISRGGSTYYADSVKGRFTISRDNAKNTVYLQMNSLKPEDTAVYYCARLPLRYYFGYDYWGQGTQVTVSS”, the “polyreactivity (PSR sort gate)” value was “high polyreactivity”.
On to “QVQLVESGGGLDQAGGSLRLSCAASGAIFPIYAMGWYRQAPGKERELVAAINRSGGSTYYADSVKGRFTISRDTAKNTVYLQMNSLKPEDSAVYYCNADYGYHNQLFWGYYGWSSDHWGQGTQVTVSS”, for which the “polyreactivity (PSR sort gate)” value is “low polyreactivity”.
In the case of “QVQLVESGGGLVQAGGSLRLSCAASGRIFAYYAMGWYRQAPGKERELVAAISFIGGSTYYADSVKGRFTISRDNAKNTVYLQMNSLKPEDTAVDYCTAGYVRRYSPSSSWRYDYWGQGTQVTVSS”, the “polyreactivity (PSR sort gate)” value is on record as “high polyreactivity”.
Take “QVQLVESGGGLVQAGGSLRLSCAASGFTFAFYTMGWYRQAPGKERELVAGITRSGTNTYYADSVKGRFTISRDNSKNTVYLQMNSLKPEDTSVYYCNADPRTGWYKYDYWGQGTQVTVSS”: the “polyreactivity (PSR sort gate)” value is given as “high polyreactivity”.
With “QVQLVESGGGLVQAGGSLRLSCAASGFTFIHYGMGWYRQAPGKERELVAAISSRGGRTYYADSVKGRFTISRDNAKNTVYLQMNSLKPEDTAVYYCNRDYAVISYGEYDSWGQGTQVTVSS”, the “polyreactivity (PSR sort gate)” value is given as “high polyreactivity”.
Consider “QVHLVESGGGLVQAGGSLRLSCAASGSIFAVYAMGWYRQEPGKERELVAVITRSGGSTYYADSVKGRFTISRDNAKKTVYLQLYSLKPEDTAVYYCAARSSYLLRYDYWGQGTQVTVSS”, for which the “polyreactivity (PSR sort gate)” value was “high polyreactivity”.
Under “QVQLVESGGGLVQAGGSLRLSCAATGRIFHGYAMGWYRQAPGKERELVAAIDEDGGSTYYADSVKGRFTISRDNAKNTVYLQMNSLKPVDTAVYYCNADCSVRLDGFDYWGQGTQVTVSS” stands “low polyreactivity”; under “QVQLVESGGGLVQAGGSLRLSCAASGRTFAGNAMGWYRQAPGKERELVAAIRRTGGRTYYADSVKGRFTISRDNAKNTVYLQMNSLKPEDTAVYYCNAVNKPYTREYGYDYWGQGTQVTVSS”, “high polyreactivity”; under “QVQLVESGGGLVQAGGRLRLSCAASGRIFKSYAMGWYRQAPGKERELVATISISGGSTYYADSVKGRFTISRDNAKNTVYLQMNSLKPEDTAVYYCASDRYGLGDYDYWGQGTQVTVSS”, “low polyreactivity”.
On to “QVQLVESGGGLVQAGGSLRLSCAASGYIFFRNAMGWSRQAPGKEREFVADIRFSGGNTYYADSVKGRFTISRDNAKNTVYFQKISLKPEDTAVYYCSADLVYTYAYDYWGQGTQVTVSS”, for which the “polyreactivity (PSR sort gate)” value was “low polyreactivity”.
Regarding “QVQLVESGGGLVQAGGSLRLSCAASGSTFDFYAMGWYRQAPGKERELVARISSGGGRTYYADSVKGRFTISRDNAKNTVYLQLNSLKPEDTAVYYCATDYPWIFGHFLMDYWGQGTQVTVSS”, the “polyreactivity (PSR sort gate)” value is on record as “low polyreactivity”.
“QVQLLESGGGLVQAGGSLRLSCAASGRILRINTMGWYRQAPGKERELVAAISWSGGTTYYADSVKGRFTISRDNAKNTVYLQMNSLKPEDTAVYYCNKAIWYAEYDYWGQGTQVTVSS”: the “polyreactivity (PSR sort gate)” value was “low polyreactivity”.
Regarding “QVQLVESGGGLVQAGGSLRLSCAASGSTSSVYAIGWYRQAPGKEREFVASITRRTGITFYADSVKGRFTISRDHAKNTVYLQMNSLKPEDTAVYYCAADFSGSVDYWGQGTQVTVSS”, the “polyreactivity (PSR sort gate)” value is “high polyreactivity”.
As for “QVQLVESGGGLVQAGGSLRLSCAASGSTFSVYAMGWYRQAPGKERELVAAISSSGANTYYADSVKGRFTISRDNAKNTVYLQMNSLKPEDTAVYYCAAYVSGGYEYDYWGQGTQVTVSS”, the “polyreactivity (PSR sort gate)” value is on record as “low polyreactivity”.
Regarding “QVQLVESGGGLVQAGGSLRLSCAASGSTFANYVMGWYRQAPGKEREVVAAISWTGGSTYYADSVKGRFTISRDNAKNTVYLQMHSLKPEDTAVYYCNAASYAWLWHPKSGLYDYWGQGTQVTVSS”, the “polyreactivity (PSR sort gate)” value is recorded as “low polyreactivity”.
